Target: T1, HLA-A2.1 on T2 cells (empty or unstable surface MHC class I, with added beta-2 microglobulin) (human)
T1 construct: it is treated here as the same molecule; also called HLA-A*0201
Assay: T2 cell HLA-A2.1 stabilisation, W6/32 staining, flow cytometry
Procedure: T2 cells, which express empty or unstable MHC molecules on their surfacer were washed twice and suspended at 5×10⁶ cells/ml in serum-free complete Iscove's modified Dulbecco's medium (IMDM). B2 microglobulin (Sigma, St. Louis, Mo.) was added at 5 μg/ml and the cells distributed to a 96-well U-bottom plate at 5×10⁵ cells/well. Peptides were added at 100, 10, 1 and 0.1 μg/ml. The plate was rocked gently for 2 minutes and then incubated for 4 hours in a 5% CO₂ incubator at 37° C. After the unbound peptide was removed by washing twice with IMDM, a saturating amount of monoclonal antibody W6/32 (Sigma) was added. After incubation for 30 minutes at 4° C., cells were washed with PBS supplemented with 1% heat-inactivated FCS, 0.1% (w:v) sodium azide, pH 7.4-7.6 (staining buffer), and incubated with fluorescein isothiocyanate (FITC)-conjugated goat F(ab′) antimouse-IgG (Sigma) for 30 min at 4° C. and washed four times as before. The cells were resuspended in staining buffer and fixed by adding a quarter volume of 2% paraformaldehyde.

binding result: binds
B1: tyrosinase 207-216, FLPWHRLFLL (candidate tyrosinase housekeeping epitope) (peptide)
peptide: FLPWHRLFLL
notes: Synthetic 10-mer added to T2 cells at 100, 10, 1 and 0.1 ug/ml

From patent US20050130920A1 (published 2005)
